{
  "source": "paper PMC8861115",
  "about": "“Characterization and structural analyses of a novel glycosyltransferase acting on the β-1,2-glucosidic linkages” (The Journal of Biological Chemistry, 2022)",
  "molecular_target": "the molecule itself",
  "assay": "SEC; Superdex 200 10/300 GL, 0.5 mg in 500 μl loaded, 5 mM MOPS pH 7.5, 100 mM ammonium sulfate, 1 mM DTT; calibrated with standard proteins",
  "data": [
    {"protein": "IALB_1185 protein from Ignavibacterium album (IaSGT), wild type, recombinant (enzyme, IALB_1185 protein (GH35), Ignavibacterium album DSM19864, gene ialb_1185 amplified from genomic DNA and inserted into the NdeI and XhoI sites of pET30a(+); domains in the structure: TIM barrel 6-432, Rossmann fold 438-648, Ig-like 653-716; theoretical molecular mass of the recombinant protein 84,709.883; Surmise: cloning into NdeI/XhoI of pET30a(+) would give a C-terminal His6 tag; A …) MKPHNSEKYFVKNGQPHFLISGEVHYFRINPKLWRNHLQLLKQTGADTVSTYIPWDWHEIEEDDFDFEGKTHPARNLIRFIKLCKEENLDLIVKPGPYILAEYENQGLPSWLLKKLSKNAFALDENGNVISPDLVSYLSDEFLEYTFKWYDKVMPIISKHQKEHYGPITMMQLCNEIGVFQWLSGKSDYNPKVINLYKEFIIQRYKTIEKLNSVYSTNYNSFDDLKAPSGKIKLRSDYCAYFDFHLFFREYYNKYISILKNKIRSFGINIKLTHNIPGWIYGNASELPMLISTYSEIMKNHPDIIFGLDHIPEFVSFRNAHSDLACNKILEAMQPEAPVWAAEFQAGTREHHVKAYAKDLETFYIASLAHGIKGFNYYMFSQGINPEGKGFYGKTFYFQTALDAASNKLALYDSIKKVNRFIRKEQKDLLRTNVNSEICVGFYKPYFFTELISSQLLKEKKLNVEELGLYIDPRFLREEILFNGLLRGLQTLNYNYDVVDLENCDLKSLTAYKQLWITSAEFMDAETQNLLSEFVLNGGNLILYPAVPTLDNYLNRCEILKNNFGIEFITKDSSHKVSAFGIEDVFTAFSKKQIYNDTNSKPIAFTQENEICGIRKKIGKGELTILGFAFGYTSDEHLELIDKLVKLNKIKRELFVSDKDIQFVVRENNKSRYIFFLNYHNERKTFNYRKSSELKKKKSEEISIAPFSYKVIKENK", "values": [
      {"measurement": "stoichiometry N", "result": 2}
    ]}
  ]
}
